The values that follow come from patent US20240239894A1, “THERAPEUTIC BINDING MOLECULES” (MedImmune Limited, priority 2020, published 2024).

One data set concerns HT29 hB7H4 clone 44. As to the kind of experiment: E02-GL MESF on cell line. The data set is classed as cell-based, human.
The test system of another data set is HEK 293 JI hB7H4 pool. As to the kind of experiment: E02-GL MESF on cell line. The data set is classed as cell-based. The note with it: has some negative cells in pool.
The subject of another data set is HCC1569. The data set can be described thus: E02-GL MESF on cell line. The data set is classed as cell-based.
Data set [1] relates to B7-H4 expressing versus WT HT29, CT26 and 4T1 tumours. As to the kind of experiment: In vivo imaging of 800CW labelled antibody. Also noted: species or system mice. Particulars: 800CW label; HT29 days 3, 7, 14; CT26 days 3 and 7; 4T1 day 7. The text has this: Antibody clones (e.g. E02_GL) were labelled with 800CW (LI-COR Biosciences). 800 CW labelled R347 was used in control experiments.
B7-H4 expressing CT26/4TI/HT29 cancer cells were grafted (e.g. inoculated subcutaneously) to the left flank […] nude mice (Charles River Laboratories, Wilmington, MA), and non-B7-H4 expressing CT26/4TI/HT29 cancer cells were grafted to the right flank to provide an internal control. Mice were kept for a week to develop tumours, 800CW-labelled E02_GL was injected. 800CW-labelled R347 was injected into control mice. […]
In vivo imaging studies were performed as outlined under Materials and Methods (above), namely with 800CW labelled antibody (E02_GL). “E02-GL” antibody has the CDR/VH sequences (e.g. corresponds to) of ZY0EQD-E02 (“GL” means the antibody has been germlined).

In another data set the target is T1, human B7-H4 antigen (Homo sapiens, UniProt Q7Z7D3).
T1 sequence (Q7Z7D3 25-282): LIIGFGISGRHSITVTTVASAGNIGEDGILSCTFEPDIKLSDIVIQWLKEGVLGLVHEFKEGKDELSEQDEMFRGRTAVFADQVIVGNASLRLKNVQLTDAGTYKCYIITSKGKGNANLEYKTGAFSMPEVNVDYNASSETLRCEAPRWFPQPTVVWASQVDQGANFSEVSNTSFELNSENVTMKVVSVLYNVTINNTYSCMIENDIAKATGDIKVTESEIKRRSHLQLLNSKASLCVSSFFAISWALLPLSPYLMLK
The data set can be described thus: SPR, antibody capture method. The data set is classed as binding. As for the experimental part: To assess whether conjugation of the topoisomerase 1 linker-warhead affected binding properties of the E02-INT antibody, the binding affinity of E02-INT and E02-GL-SG3932 were measured using a DELFIA-ELISA method and an SPR method. […] The kinetic rate constants (kon and koff) and equilibrium dissociation constants (KD) of E02-INT and E02-GL-SG3932 for human B7-H4 antigen was also determined by SPR, using an antibody capture method.
(In general: In SPR one partner is held on a chip, and binding of the other changes the refractive index at the surface.)

The next data set relates to HCC1569 cells. As to the kind of experiment: Western blot DNA damage response. The data set is classed as cell-based. Particulars: 100 ng/ml ADC, 100 pM SG3199. How it is done: Following treatment of HCC1569 cells with E02-GL-SG3249, and SG3199 as a control (at 100 ng/ml and 100 pM, respectively), lysate was prepared and subjected to western blot analysis with antibodies to pATR, ATR, pChk1, Chk1, pRPA32, RPA32, pATM, ATM (all involved in ATR signalling), pChk2, ChK2, pKAP1, KAP1 (all involved in ATM signalling), pDNA-PK, DNA-PK, pH2AX, H2AX, pBRCA1, BRCA1 (all involved in DNA double strand break), pFANCD2 and GAPDH (load control). Negative controls were PBS treatment alone.

A further data set relates to SKBR-3 cells. The data set can be described thus: Caspase 3/7 activity (IncuCyte). The data set is classed as cell-based, human. As for the experimental part:
SKBR-3 cells were treated with E02-GL-SG3249, SG3199 and Olaparib (control) and monitored for caspase 3/7 activity (e.g. apoptosis) by IncuCyte.

The subject of the next data set is CTG-012. As to the kind of experiment: PDX model. The note with it: CTG-012, Breast (Triple negative); 0.3 mg/kg vs vehicle. The data set is classed as in vivo. The source says:
(§1) Patient derived xenograft models were generated using cancer cell lines with varying levels of B7-H4 expression, as outlined in Table 16. […] “E02-GL” antibody has the CDR/VH sequences (e.g. corresponds to) of ZY0EQD-E02 (“GL” means the antibody has been germlined).

The test system of another data set is CTG-052. The data set can be described thus: PDX model. Particulars: CTG-052, Breast (Triple negative); 0.3 mg/kg vs vehicle. The data set is classed as in vivo.
From the text: as §1

A further data set relates to CTG-0992. As to the kind of experiment: PDX model. The data set is classed as in vivo. The note with it: CTG-0992, Ovarian; 0.3 mg/kg vs vehicle.
From the text: as §1

The subject of a further data set is CTG-1086. As to the kind of experiment: PDX model. Particulars: CTG-1086, Ovarian; 0.3 mg/kg vs vehicle. The data set is classed as in vivo.
From the text: as §1

In a further data set the test system is CTG-1106. The data set can be described thus: PDX model. The data set is classed as in vivo. Particulars: CTG-1106, Breast (Triple negative); 0.3 mg/kg vs vehicle.
From the text: as §1

The test system of the next data set is HBCx-10. As to the kind of experiment: PDX model. The data set is classed as in vivo. The note with it: HBCx-10, Breast (Triple negative); 0.3 mg/kg vs vehicle.
From the text: as §1

A further data set has as its system HBCx-11. As to the kind of experiment: PDX model. Particulars: HBCx-11, Breast (Triple negative); 0.3 mg/kg vs vehicle. The data set is classed as in vivo.
From the text: as §1

The next data set has as its system HBCx-9. The data set can be described thus: PDX model. The data set is classed as in vivo. The note with it: HBCx-9, Breast (Triple negative); 0.3 mg/kg vs vehicle.
From the text: as §1

Another data set concerns T168. As to the kind of experiment: PDX model. The note with it: T168, Breast (HR+); 0.3 mg/kg vs vehicle. The data set is classed as in vivo.
From the text: as §1

For a further data set, the system named is T272. As to the kind of experiment: PDX model. The data set is classed as in vivo. The note with it: T272, Breast (HR+); 0.3 mg/kg vs vehicle.
From the text: as §1

A further data set relates to T330. The data set can be described thus: PDX model. The data set is classed as in vivo. The note with it: T330, Breast (Triple negative); 0.3 mg/kg vs vehicle.
From the text: as §1

The next data set is described as follows: Toxicology study. The data set is classed as in vivo. The note with it: male cynomolgus monkeys, N=2/dose level. As for the experimental part: E02-GL-SG3249 was administered to male cynomolgus monkeys (N═2/dose level). The “E02-GL” antibody has the CDR/VH sequences (e.g. corresponds to) of ZY0EQD-E02 (“GL” means the antibody has been germlined).

B1: E02-GL: germlined ZY0EQD-E02, VH SEQ ID NO: 45, VL SEQ ID NO: 34; antibody intermediate of E02-GL-SG3932 (antibody, V domains shown)
VH: QVQLQQWGAGLLKPSETLSLACTVYGGSFSGYYWNWIRQPPGKGLEWIGEINHSGSTSYNPSLKSRVTISVDTSKNQFSLKLSSVTAADTAVYYCARVLYNWNVDSWGQGTLVTVSS
VL: DIQMTQSPSSLSASVGDRVTITCRASQDIRNDVGWYQQKPGKAPKRLIYAASRLQSGVPSRFSGSGSGTEFTLTISSLQPEDFATYYCLQHNSYPRTFGQGTKVEIK
For the molecule B1, the “E02-GL MESF” value with HT29 hB7H4 clone 44 is on record as 147,125 MESF. In addition, the “E02-GL MESF” value in the data set with HEK 293 JI hB7H4 pool is given as 2,481,266 MESF. Further, in the data set with HCC1569, the “E02-GL MESF” value is 112,608 MESF. In addition, in data set [1], the “localization to the B7-H4 expressing tumour compared to the WT tumour” value is given as “Preferential localization”. Besides, in the data set with human B7-H4 antigen, the “Ka” value amounted to 93800 M⁻¹ s⁻¹, the Kd (commonly the constant that tells how readily two partners part at equilibrium) stood at 31.1 nM, the “Kd (s^−1)” value is 0.00292 s⁻¹ and the “Rmax (RU)” value is recorded as 56.8 RU.

B2: E02-GL-SG3249: clone E02-GL (Maia heavy chain backbone) conjugated to the PBD cytotoxin SG3249 (conjugate)
heavy: QVQLQQWGAGLLKPSETLSLACTVYGGSFSGYYWNWIRQPPGKGLEWIGEINHSGSTSYNPSLKSRVTISVDTSKNQFSLKLSSVTAADTAVYYCARVLYNWNVDSWGQGTLVTVSSASTKGPSVFPLAPSSKSTSGGTAALGCLVKDYFPEPVTVSWNSGALTSGVHTFPAVLQSSGLYSLSSVVTVPSSSLGTQTYICNVNHKPSNTKVDKRVEPKSCDKTHTCPPCPAPELLGGPSCVFLFPPKPKDTLMISRTPEVTCVVVDVSHEDPEVKFNWYVDGVEVHNAKTKPREEQYNSTYRVVSVLTVLHQDWLNGKEYKCKVSNKALPAPIEKTISKAKGQPREPQVYTLPPSREEMTKNQVSLTCLVKGFYPSDIAVEWESNGQPENNYKTTPPVLDSDGSFFLYSKLTVDKSRWQQGNVFSCSVMHEALHNHYTQKSLSLSPGK
light: DIQMTQSPSSLSASVGDRVTITCRASQDIRNDVGWYQQKPGKAPKRLIYAASRLQSGVPSRFSGSGSGTEFTLTISSLQPEDFATYYCLQHNSYPRTFGQGTKVEIKRTVAAPSVFIFPPSDEQLKSGTASVVCLLNNFYPREAKVQWKVDNALQSGNSQESVTEQDSKDSTYSLSSTLTLSKADYEKHKVYACEVTHQGLSSPVTKSFNRGEC
Consider B2, for which, in the data set on HCC1569 cells, the “DNA damage response signalling (ATR, ATM, double strand break markers)” value was “leads to double strand DNA breaks”. For the same molecule, the “caspase 3/7 activity” value in the data set with SKBR-3 cells is reported as “dose dependent increase”. The “% Tumour Growth Inhibition (TGI)” value with CTG-012 is 90%; with CTG-052, 30%; in the data set on CTG-0992 it was 0%; in the data set with CTG-1086 it was 20%; with CTG-1106 it was 30%; with HBCx-10, 90%. The “% Tumour Growth Inhibition (TGI)” value with HBCx-11 stood at 80%; in the data set with HBCx-9, 70%; in the data set on T168 it was 60%; in the data set on T272, 30%; in the data set with T330, 70%. Also, the toxicities entry in the data set “Toxicology study” is on record as “No abnormal toxicities”.
